Experiments:
Syndecan 3 = biological target: T1, Syndecan 3 (Homo sapiens, UniProt O75056); assay: Affinity purification of K105 membrane proteoglycans on chondroadherin-agarose and immunoprecipitation with pan-syndecan antibody; assay type: binding; details: eluted with 0.5 M NaCl, after heparitinase
T1 construct: endogenous in cells; host or cells: human chondrosarcoma cells K105 (membrane fraction, surface-biotinylated)
Procedure: Recombinant chondroadherin (2.5 mg expressed in EBNA-cells per ml agarose) was coupled to Mini-Leak agarose (Kem En Tec, A/S, Denmark) according to the manufacturer's instructions. The control agarose was treated in the same manner but with no protein added.
Human chondrosarcoma cells (k105) suspended in PBS were incubated with EZ-link sulfo NHS-LC biotin (Pierce Chemical Co) at a final concentration of 1 mg/ml for 1 hour at room temperature. The cells were incubated for 10 minutes in 0.1 M glycine in PBS to block free biotin, washed three times in PBS and then resuspended and homogenized in 10 mM KCl, 20 mM Tris/HCl, pH 7.4, 1 mM EDTA (1 ml/10^6 cells). Nuclei were removed by centrifugation at 1,500 g for 5 minutes, 0.15 M NaCl was added to the supernatant and the membrane fraction was collected by centrifugation at 50,000 g for 30 minutes. The pellet was suspended in 2 ml 8 M UREA, 2% […] in TBS pH 7.4 supplemented with COMPLET® protease inhibitor (Roche). The lysate was cleared by centrifugation at 14,000 g for 20 min. […]
Cell surface proteins on human chondrosarcoma cells (K105) were biotin labeled and affinity purified on chondroadherin-agarose in urea. Bound material was eluted with 0.5 M NaCl, separated on SDS-PAGE (4-12%) and detected by Western blot before or after heparitinase and chondroitinase ABC treatment. […]

K9 cells = assay: Adhesion of K9 cells to selected matrix constituents (FIG. 1); assay type: cell-based, human; details: 5 μg/ml coating, 1 hour at 37° C., 50,000 cells/well seeded
Procedure: Human cells (K9) originating from a human chondrosarcoma were a kind gift from Drs. Sven Inerot and Anders Lindahl, The Salgrenska University Hospital Gothenburg, Sweden. The K9 cells were cultured in Dulbeccos Modified Eagle Medium: Nutrient Mixture F12 (DMEM/F12 1:1) with GLUTAMAX I, supplemented with 10% fetal calf serum, 25 μg/ml ascorbic acid, 50 IU of penicillin and 50 μg/ml streptomycin (Life Technologies, Inc.). A different human cells line (K105) originating from a human chondrosarcoma was a kind gift from Dr. Sven Inerot, The Salgrenska University Hospital, Gothenburg, Sweden. […]
To test cell binding, the chondrosarcoma cells or bovine chondrocytes were suspended in PBS containing 0.1% BSA, 25 U/ml collagenase and added to the wells (50,000/well), in the absence or presence of various peptide pools or the synthetic peptides (200, 100, 50, 25, 12.5 μg/ml). Non-adherent cells were removed after 1 hour and adhesion was determined by measuring lysosomal N-acetylglucosaminidase (12). […]
48-well tissue culture dishes were coated with 5 μg/ml collagen type II, tissue extracted bovine chondroadherin, human chondroadherin expressed in EBNA cells and human chondroadherin expressed in E. coli and blocked for non-specific binding with BSA. […] Nonadherent cells were removed by washing and adhesion was determined by analyzing lysosomal N-acetylglucosaminidase. […]

[1] = Heparin binding on Heparin-Sepharose; details: eluted with NaCl (0.5, 1, 2M), Western blot or MALDI-TOF MS
Procedure: Intact recombinant protein (10 μg, EBNA-cell expressed) diluted in PBS was passed over Heparin-Sepharose (Amersham Pharmacia) (1 ml), washed with 20 volumes of PBS and eluted with 2 M NaCl (6×1 ml). Eluted material was precipitated with ethanol, separated by SDS-PAGE (10%) and visualized by western blot (CHAD ab α-80, Larsson et al). The peptide CKFPTKRSKKAGRH (SEQ ID No:7) was diluted in PBS and passed over heparin-sepharose (100 μl), the column was washed with 20 volumes PBS and bound material eluted with 0.5, 1, and 2M NaCl (3 column volumes of each).
Recombinant chondroadherin (10 or 100 μg) expressed in EBNA-cells was passed over Heparin-Sepharose-column (Pharmacia). The column was washed and eluted with 2M NaCl in PBS. Eluted material was separated on SDS-PAGE (10%) and detected by western blot using a chondroadherin antibody (see FIG. 4). The band at 36 kDa represents chondroadherin ant the band at 72 kDa represents a dimer of chondroadherin.
The candidate peptide CKFPTKRSKKAGRH (SEQ ID No: 7) was synthesized. The ability of the peptide to bind heparin was confirmed on heparin-sepharose, where material eluted with 0.5, 1 and 2M NaCl was identified by MALDI-TOF MS (data not shown).

T1 sequence (O75056 whole entry): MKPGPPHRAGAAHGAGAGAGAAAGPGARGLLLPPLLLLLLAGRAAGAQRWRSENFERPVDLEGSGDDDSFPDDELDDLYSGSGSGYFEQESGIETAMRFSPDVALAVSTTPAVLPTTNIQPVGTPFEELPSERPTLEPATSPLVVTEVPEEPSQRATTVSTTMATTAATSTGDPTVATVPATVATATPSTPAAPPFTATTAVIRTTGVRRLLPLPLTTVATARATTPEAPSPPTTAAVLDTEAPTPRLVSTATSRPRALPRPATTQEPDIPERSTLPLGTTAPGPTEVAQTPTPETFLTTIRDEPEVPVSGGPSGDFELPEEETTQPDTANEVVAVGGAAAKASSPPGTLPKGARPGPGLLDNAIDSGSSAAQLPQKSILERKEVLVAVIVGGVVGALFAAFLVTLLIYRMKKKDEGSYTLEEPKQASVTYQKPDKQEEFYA

K105 membrane component bound to chondroadherin (Syndecan 3): Syndecan 3 | binding to heparin-sepharose [1]: bind to the heparin-sepharose | binding to heparin-sepharose ([1]; listed as Recombinant chondroadherin): bind heparin
B1: Chondroadherin (protein)
chain: ACPQNCHCHSDLQHVICDKVGLQKIPKVSEKTKLLNLQRNNFPVLAANSFRAMPNLVSLHLQHCQIREVAAGAFRGLKQLIYLYLSHNDIRVLRAGAFDDLTELTYLYLDHNKVTELPRGLLSPLVNLFILQLNNNKIRELRAGRFQGAKDLRWLYLSENALSSLQPGALDDVENLAKFHVDRNQLSSYPSAALSKLRVVEELKLSHNPLKSIPDNAFQSFGRYLETLWLDNTNLEKFSDGAFLGVTTLKHVHLENNRLNQLPSNFPFDSLETLALTNNPWKCTCQLRGLRRWLEAKASRPDATCASPAKFKGQHIRDTDAFRSCKFPTKRSKKAGRH
modifications: homo sapiens
notes: leucine-rich cartilage matrix protein, 338 amino acids; human recombinant, expressed in EBNA cells or E. coli
adhesion of K9 cells to coated substrate (number of cells) (K9 cells): virtually identical to that of the bacterially expressed

— patent publication US8158577B2, “Modulation of cartilage homeostasis by active domains of cell binding extracellular matrix molecules” (priority 2004, dated 2012)
